# According to IntAct's records for PubMed 24485452:
# B1: Golgi phosphoprotein 3 (Homo sapiens), Q9H4A6 (parent)
# chain: MTSLTQRSSGLVQRRTEASRNAADKERAAGGGAGSSEDDAQSRRDEQDDDDKGDSKETRLTLMEEVLLLGLKDREGYTSFWNDCISSGLRGCMLIELALRGRLQLEACGMRRKSLLTRKVICKSDAPTGDVLLDEALKHVKETQPPETVQNWIELLSGETWNPLKLHYQLRNVRERLAKNLVEKGVLTTEKQNFLLFDMTTHPLTNNNIKQRLIKKVQEAVLDKWVNDPHRMDRRLLALIYLAHASDVLENAFAPLLDEQYDLATKRVRQLLDLDPEVECLKANTNEVLWAVVAAFTK
# Variants of: B1
# Details: with my18a_human MYO18A
row,effect of a mutation on the interaction,Variant
1,increasing interaction strength,T143E;T148E
2,increasing interaction strength,T143D;T148D
